{"source": "patent US20070093418A1", "about": "(Amgen, published 2007)", "key": {"[1]": {"target": "T1, 2xCon4 (C) 1K", "T1 construct": "also called 2×Con4-C; 2×CON4-C (Pb5714)", "assay": "KinExA solution competition, 10 pM 2xCON4-C; soluble huAng-2 varied, competing with huAng-2 on beads", "source_text": "(§1) Reacti-Gel 6× beads (Pierce, Rockford, Ill.) were pre-coated with huAng-2 and blocked with BSA. […] The amount of the bead-bound peptibody was quantified by fluorescent (Cy5) labeled goat anti-human-Fc antibody (Jackson Immuno Research, West Grove, Pa.). The binding signal is proportional to the concentration of free peptibody at equilibrium.\n(§2) The dissociation equilibrium constant (KD) was obtained from nonlinear regression of the competition curves using a dual-curve one-site homogeneous binding model (KinE×™ software)."}, "[2]": {"target": "T1, 2xCon4 (C) 1K", "assay": "KinExA solution competition, 30 pM 2xCON4-C; soluble huAng-2 varied, competing with huAng-2 on beads", "source_text": "as §1, §2"}, "[3]": {"target": "T2, Con4 (C) (Homo sapiens (Human), UniProt P0DOX5 223-449 = IgG part)", "T2 construct": "also called TN8-Con4-C", "assay": "ELISA on conditioned medium with N-terminal hAng-2 (aa 1-254, C-terminal 6xHis); O.D. 370; pCDNA3 vector-control medium as blank", "experimental": "(§3) The binding epitope of anti-Ang-2 antibodies and peptibodies was determined by their ability to bind the three versions of human hAng-2 by ELISA according to the following protocol: a high-binding 96-well assay plate was coated with 100 μl of conditioned media per well, and incubated at 37° C. for 1 hour. Conditioned media was aspirated, and the plate was blocked with 200 μl per well of 5% BSA in PBS at room temperature for 1 hour. The blocking solution was then aspirated. […] The wells were washed 4 times with 200 μl of 0.1% Tween in PBS. 100 μl per well of HRP-conjugated goat anti-human IgG or goat anti-mouse IgG were added, and incubated at room temperature for 45 minutes. The wells were then washed with 200 μl of 0.1% Tween in PBS 4 times. 100 μl per well of TMB substrate was then added. O.D. was read at 370 nm."}, "[4]": {"target": "T3, Negative Control Peptibody 4883 (Homo sapiens (Human), UniProt P0DOX5 223-449 = IgG part)", "assay": "ELISA on conditioned medium with N-terminal hAng-2 (aa 1-254, C-terminal 6xHis); O.D. 370; pCDNA3 vector-control medium as blank", "experimental": "as §3"}, "[5]": {"target": "T4, Tie-2-Fc (R&D Systems, catalog number 313-TI) (human, UniProt Q02763 23-748)", "T4 construct": "extracellular domain; bought; also called hTie2-Fc; Recombinant Human Tie-2-Fc Chimera; not shown: Fc of the bought chimera", "assay": "ELISA on conditioned medium with N-terminal hAng-2 (aa 1-254, C-terminal 6xHis); O.D. 370; pCDNA3 vector-control medium as blank", "experimental": "as §3"}, "[6]": {"target": "T3, Negative Control Peptibody 4883", "assay": "ELISA on conditioned medium with C-terminal hAng-2 (aa 255-495, C-terminal 6xHis); O.D. 370; pCDNA3 vector-control medium as blank", "experimental": "as §3"}}}
{"binder": "human angiopoietin-2 (Ang-2) (ligand, UniProt O15123 19-496, looked up, Several preparations are used (R&D Systems protein, biotinylated R&D protein, 293T conditioned media); also called hAng-2; huAng-2) YNNFRKSMDSIGKKQYQVQHGSCSYTFLLPEMDNCRSSSSPYVSNAVQRDAPLEYDDSVQRLQVLENIMENNTQWLMKLENYIQDNMKKEMVEIQQNAVQNQTAVMIEIGTNLLNQTAEQTRKLTDVEAQVLNQTTRLELQLLEHSLSTNKLEKQILDQTSEINKLQDKNSFLEKKVLAMEDKHIIQLQSIKEEKDQLQVLVSKQNSIIEELEKKIVTATVNNSVLQKQQHDLMETVNNLLTMMSTSNSAKDPTVAKEEQISFRDCAEVFKSGHTTNGIYTLTFPNSTEEIKAYCDMEAGGGGWTIIQRREDGSVDFQRTWKEYKVGFGNPSGEYWLGNEFVSQLTNQQRYVLKIHLKDWEGNEAYSLYEHFYLSSEELNYRIHLKGLTGTAGKISSISQPGNDFSTKDGDNDKCICKCSQMLTGGWWFDACGPSNLNGMYYPQRQNTNKFNGIKWYYWKGSGYSLKATTMMIRPADF", "values": [{"measurement": "IC50 (read off the curve)", "setting": "[1]", "result": "~0.01", "unit": "nM"}, {"measurement": "IC50 (read off the curve)", "setting": "[2]", "result": "~0.04", "unit": "nM"}]}
{"binder": "N-term hAng2 (aa 1-254) (ligand, also called N-terminal (amino acids 1-254) human Ang-2) YNNFRKSMDSIGKKQYQVQHGSCSYTFLLPEMDNCRSSSSPYVSNAVQRDAPLEYDDSVQRLQVLENIMENNTQWLMKLENYIQDNMKKEMVEIQQNAVQNQTAVMIEIGTNLLNQTAEQTRKLTDVEAQVLNQTTRLELQLLEHSLSTNKLEKQILDQTSEINKLQDKNSFLEKKVLAMEDKHIIQLQSIKEEKDQLQVLVSKQNSIIEELEKKIVTATVNNSVLQKQQHDLMETHHHHHH", "values": [{"measurement": "binding result", "setting": "[3]", "result": "no binding (tested: 1 µg/ml (single concentration))"}, {"measurement": "binding result", "setting": "[4]", "result": "no binding (tested: 1 µg/ml (single concentration))"}, {"measurement": "binding result", "setting": "[5]", "result": "no binding (tested: 1 µg/ml (single concentration))"}]}
{"binder": "C-term of hAng2 (aa 255-495) (ligand, also called C-terminal (amino acids 255-495) human Ang-2) VNNLLTMMSTSNSKDPTVAKEEQISFRDCAEVFKSGHTTNGIYTLTFPNSTEEIKAYCDMEAGGGGWTIIQRREDGSVDFQRTWKEYKVGFGNPSGEYWLGNEFVSQLTNQQRYVLKIHLKDWEGNEAYSLYEHFYLSSEELNYRIHLKGLTGTAGKISSISQPGNDFSTKDGDNDKCICKCSQMLTGGWWFDACGPSNLNGMYYPQRQNTNKFNGIKWYYWKGSGYSLKATTMMIRPADFHHHHHH", "values": [{"measurement": "binding result", "setting": "[6]", "result": "no binding (tested: 1 µg/ml (single concentration))"}]}
